Experimental data: US20150210756A1 (NEW YORK UNIVERSITY, published 2015)
Substitutions are numbered along the chain they refer to.

B1: Luk58 (designed binder)
chain: LPAPKNLVVSRVTEDSARLSWTAPDAAFDSFDIEYDESAHFGEAIVLTVPGSERSYDLTGLKPGTEYIVFIYGVKGGYASIPLSAIFTT
notes: not shown: C-terminal poly-histidine tag
B2: Luk59 (designed binder)
chain: LPAPKNLVVSRVTEDSARLSWTAPDAAFDSFDISYNEFAWSGEAIVLTVPGSERSYDLTGLKPGTEYVVYIHGVKGGPTSYPLSAIFTT
notes: as for B1
B3: Luk9 (designed binder)
chain: LPAPKNLVVSRVTEDSARLSWDRTYSLLNYFDSFLIQYQESEKVGEAIVLTVPGSERSYDLTGLKPGTEYTVSIYGVGGQHPTYESNPLSAIFTT
notes: as for B1
B4: Luk10 (designed binder)
chain: LPAPKNLVVSRVTEDSARLSWAASENAFVFDSFLIQYQESEKVGEAIVLTVPGSERSYDLTGLKPGTEYTVSIYGVGGKLHNQFEWLSNPLSAIFTT
notes: also called anti-LukD FN3 domain Luk10; not shown: C-terminal poly-histidine tag
B5: Luk12 (designed binder)
chain: LPAPKNLVVSRVTEDSARLSWRAKPWAPKFDSFLIQYQESEKVGEAIVLTVPGSERSYDLTGLKPGTEYTVSIYGVKASEKFIESNPLSAIFTT
notes: also called Luk12 anti-LukD FN3 domain; not shown: C-terminal poly-histidine tag
B6: Luk11 (designed binder)
chain: B5 chain with K77S, S79I, E80K, K81P, F82G, I83H, E84T
notes: as for B1
B7: Luk22 (designed binder)
chain: B5 chain with T70A
notes: also called anti-LukD FN3 domain Luk22; not shown: C-terminal poly-histidine tag
B8: Luk8 (designed binder)
chain: LPAPKNLVVSRVTEDSARLSWKRKPWAPIFDSFLIQYQESEKVGEAIVLTVPGSERSYDLTGLKPGTEYTVSIYGVWDHAGPKYEIESNPLSAIFTT
notes: as for B1
B9: Luk21 (designed binder)
chain: B8 chain with K22V, R23T, P28E, I29Y
notes: as for B1
B10: Luk17 (designed binder)
chain: LPAPKNLVVSRVTEDSARLSWTAPDAAFDSFWITYEEKFYRGEAIVLTVPGSERSYDLTGLKPGTEYKVWIVGVKGGQGSWPLSAIFTT
notes: also called Luk17 anti-LukAB FN3 domain; not shown: C-terminal poly-histidine tag
B11: Luk19 (designed binder)
chain: LPAPKNLVVSRVTEDSARLSWYHAIHRLNHFDSFLIQYQESEKVGEAIVLTVPGSERSYDLAGLKPGTEYTVSIYGVLPDAFVSSNPLSAIFTT
notes: as for B1
B12: Luk20 (designed binder)
chain: B11 chain with A62T
notes: as for B1
B13: Luk24 (designed binder)
chain: LPAPKNLVVSRVTEDSARLSWTAPDAAFDSFQIGYFELWPNGEAIVLTVPGSERSYDLTGLKPGTEYEVFIRGVKGGLYSYPLSAIFTT
notes: as for B1
B14: Luk151 (designed binder)
chain: LPAPKNLVVSRVTEDSARLSWTAPDAAFDSFGITYTEVYWWGEAIVLTVPGSERSYDLTGLKPGTEYTVTIPGVKGGWISAPLSAIFTT
B15: Luk129 (designed binder)
chain: LPAPKNLVVSRVTEDSARLSWTAPDAAFDSFNINYPEEFHGGEAIVLTVPGSERSYDLTGLKPGTEYEVWIWGVKGGSSSNPLSAIFTT
B16: CR5133 PRASA A6 HC-AB (Construct 6) (other)
heavy: EVQLVETGGGLVKPGGSLRLSCSASRFSFRDYYMTWIRQAPGKGPEWVSHISGSGSTIYYADSVRGRFTISRDNAKSSLYLQMDSLQADDTAVYYCARGGRATSYYWVHWGPGTLVTVSSASTKGPSVFPLAPSSKSTSGGTAALGCLVKDYFPEPVTVSWNSGALTSGVHTFPAVLQSSGLYSLSSVVTVPSSSLGTQTYICNVNHKPSNTKVDKKVEPKSCDKTHTCPPCPAPPVAGPDVFLFPPKPKDTLMISRTPEVTCVVVDVSHEDPEVKFNWYVDGVEVHNAKTKPREEQYNSTYRVVSVLTVLHQDWLNGKEYKCKVSNAALPAPIAKTISKAKGQPREPQVYTLPPSRDELTKNQVSLTCLVKGFYPSDIAVEWESNGQPENNYKTTPPVLDSDGSFFLYSKLTVDKSRWQQGNVFSCSVMHEALHNRFTQKSLSLSPGKGGGGSGGGGSGGGGSGGGGSMLPAPKNLVVSRVTEDSARLSWTAPDAAFDSFWITYEEKFYRGEAIVLTVPGSERSYDLTGLKPGTEYKVWIVGVKGGQGSWPLSAIFTT
light: EIVLTQSPATLSLSPGERATLSCRASQSVSGYLGWYQQKPGQAPRLLIYGASSRATGIPDRFSGSGSGTDFTLTISRLEPEDFAVYYCQQYGSSPLTFGGGTKLEIKRTVAAPSVFIFPPSDEQLKSGTASVVCLLNNFYPREAKVQWKVDNALQSGNSQESVTEQDSKDSTYSLSSTLTLSKADYEKHKVYACEVTHQGLSSPVTKSFNRGEC
notes: also called mAb 5133 PRASA A6 HC LukAB
B17: CR5133 PRASA A6 LC-D (Construct 5) (other)
heavy: EVQLVETGGGLVKPGGSLRLSCSASRFSFRDYYMTWIRQAPGKGPEWVSHISGSGSTIYYADSVRGRFTISRDNAKSSLYLQMDSLQADDTAVYYCARGGRATSYYWVHWGPGTLVTVSSASTKGPSVFPLAPSSKSTSGGTAALGCLVKDYFPEPVTVSWNSGALTSGVHTFPAVLQSSGLYSLSSVVTVPSSSLGTQTYICNVNHKPSNTKVDKKVEPKSCDKTHTCPPCPAPPVAGPDVFLFPPKPKDTLMISRTPEVTCVVVDVSHEDPEVKFNWYVDGVEVHNAKTKPREEQYNSTYRVVSVLTVLHQDWLNGKEYKCKVSNAALPAPIAKTISKAKGQPREPQVYTLPPSRDELTKNQVSLTCLVKGFYPSDIAVEWESNGQPENNYKTTPPVLDSDGSFFLYSKLTVDKSRWQQGNVFSCSVMHEALHNRFTQKSLSLSPGK
light: EIVLTQSPATLSLSPGERATLSCRASQSVSGYLGWYQQKPGQAPRLLIYGASSRATGIPDRFSGSGSGTDFTLTISRLEPEDFAVYYCQQYGSSPLTFGGGTKLEIKRTVAAPSVFIFPPSDEQLKSGTASVVCLLNNFYPREAKVQWKVDNALQSGNSQESVTEQDSKDSTYSLSSTLTLSKADYEKHKVYACEVTHQGLSSPVTKSFNRGECGGGGSGGGGSGGGGSGGGGSLPAPKNLVVSRVTEDSARLSWRAKPWAPKFDSFLIQYQESEKVGEAIVLTVPGSERSYDLTGLKPGTEYTVSIYGVKASEKFIESNPLSAIFTT
B18: CR5133 PRASA A6 LC-D HC-AB (Construct 7) (other)
heavy: B16 heavy
light: B17 light
notes: also called PRASA A6 LC-D AB construct 7

Biological target: T1, LukE (S. aureus, UniProt Q2FXB0 24-306)
T1 construct: also called leukotoxin E
Test: ELISA after cis-display panning

Q: Does B1 bind?
A: binds

Q: Does B2 bind?
A: binds

Biological target: T2, LukD (S. aureus, UniProt Q2FXB1 27-327)
T2 construct: also called leukotoxin D
T2 sequence: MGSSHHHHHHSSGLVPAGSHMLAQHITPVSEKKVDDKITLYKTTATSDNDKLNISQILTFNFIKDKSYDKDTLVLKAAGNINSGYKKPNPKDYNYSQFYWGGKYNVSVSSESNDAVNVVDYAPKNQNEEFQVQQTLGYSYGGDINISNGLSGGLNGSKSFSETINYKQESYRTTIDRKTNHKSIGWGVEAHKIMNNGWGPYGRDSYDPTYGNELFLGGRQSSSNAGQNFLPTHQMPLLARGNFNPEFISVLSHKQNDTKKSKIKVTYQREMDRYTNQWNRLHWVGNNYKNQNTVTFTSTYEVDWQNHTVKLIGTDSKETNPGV
Test: ELISA after cis-display panning

Q: Does B3 bind?
A: binds

Q: Does B4 bind?
A: binds

Q: Does B5 bind?
A: binds

Q: Does B6 bind?
A: binds

Q: Does B7 bind?
A: binds

Q: Does B8 bind?
A: binds

Q: Does B9 bind?
A: binds

Biological target: T3, Recombinant LukA′B toxoid complex (S. aureus, UniProt Q2FFA2 28-351; P21224 30-338)
T3 construct: also called modified LukA′B toxoid complex
T3 sequence 1: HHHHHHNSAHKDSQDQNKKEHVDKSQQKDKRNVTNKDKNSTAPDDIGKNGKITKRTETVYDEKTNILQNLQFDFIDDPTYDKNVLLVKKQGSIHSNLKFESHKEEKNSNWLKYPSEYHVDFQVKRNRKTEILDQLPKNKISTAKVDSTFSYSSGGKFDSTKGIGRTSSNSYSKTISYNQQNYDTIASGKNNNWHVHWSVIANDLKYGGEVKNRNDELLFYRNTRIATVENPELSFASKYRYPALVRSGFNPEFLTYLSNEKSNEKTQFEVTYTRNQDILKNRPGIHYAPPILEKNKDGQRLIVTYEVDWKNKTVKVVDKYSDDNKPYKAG
T3 sequence 2: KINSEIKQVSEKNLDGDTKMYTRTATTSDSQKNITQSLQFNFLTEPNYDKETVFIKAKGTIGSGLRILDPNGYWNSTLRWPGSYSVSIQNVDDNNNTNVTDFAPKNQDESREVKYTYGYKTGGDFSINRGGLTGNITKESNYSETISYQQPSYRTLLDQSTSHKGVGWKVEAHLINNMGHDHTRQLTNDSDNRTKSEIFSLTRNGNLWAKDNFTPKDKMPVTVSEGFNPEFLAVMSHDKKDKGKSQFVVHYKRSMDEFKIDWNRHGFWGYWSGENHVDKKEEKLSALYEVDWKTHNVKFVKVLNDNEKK
Test: ELISA after cis-display panning

Q: Does B10 bind?
A: binds

Q: Does B11 bind?
A: binds

Q: Does B12 bind?
A: binds

Q: Does B13 bind?
A: binds

Biological target: T4, HlgA (S. aureus, UniProt P0A071 30-309)
T4 construct: also called gamma hemolysin A; HlgA subunit
T4 sequence: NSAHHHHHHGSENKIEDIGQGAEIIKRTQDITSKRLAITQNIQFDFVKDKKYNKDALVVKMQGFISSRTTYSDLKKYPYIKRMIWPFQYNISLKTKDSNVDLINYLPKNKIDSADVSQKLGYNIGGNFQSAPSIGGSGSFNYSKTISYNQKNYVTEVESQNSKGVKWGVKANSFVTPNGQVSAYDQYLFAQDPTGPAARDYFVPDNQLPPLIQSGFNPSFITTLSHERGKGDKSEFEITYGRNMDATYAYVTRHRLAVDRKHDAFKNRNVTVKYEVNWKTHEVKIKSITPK
Test: ELISA on purified, recombinant HlgA

Q: Does B14 bind?
A: binds

Q: Does B15 bind?
A: binds

Biological target: human FcγRI (human, UniProt P12314 16-288)
Test: AlphaScreen competition against biotinylated IgG1

Chain of human FcγRI (P12314 16-288 limits assumed): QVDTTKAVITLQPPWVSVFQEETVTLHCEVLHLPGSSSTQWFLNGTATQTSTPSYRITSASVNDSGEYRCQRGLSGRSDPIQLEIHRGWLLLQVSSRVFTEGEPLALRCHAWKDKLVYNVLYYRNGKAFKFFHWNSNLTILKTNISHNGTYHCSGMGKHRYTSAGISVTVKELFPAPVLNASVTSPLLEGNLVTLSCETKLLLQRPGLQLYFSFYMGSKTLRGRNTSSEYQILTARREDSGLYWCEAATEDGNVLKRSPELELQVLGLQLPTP

Q: Does B16 bind?
A: no binding

Q: Does B17 bind?
A: no binding

Q: Does B18 bind?
A: no binding

Biological target: human FcγRIIIa (V158) (human, UniProt P08637 17-208)
Test: AlphaScreen competition against biotinylated IgG1

Chain of human FcγRIIIa (V158) (P08637 17-208 F176V limits assumed): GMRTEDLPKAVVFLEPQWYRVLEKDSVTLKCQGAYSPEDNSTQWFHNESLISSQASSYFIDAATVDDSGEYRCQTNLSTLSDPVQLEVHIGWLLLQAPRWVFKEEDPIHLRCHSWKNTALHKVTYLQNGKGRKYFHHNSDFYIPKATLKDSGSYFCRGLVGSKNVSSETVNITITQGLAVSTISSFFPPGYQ

Q: Does B16 bind?
A: binds

Q: Does B17 bind?
A: binds

Q: Does B18 bind?
A: binds

Biological target: T5, Protein A (Staphylococcus aureus, UniProt P38507 37-477)
T5 construct: also called S. aureus Protein A; SpA
Test: direct ELISA on coated biotinylated Protein A

Q: Does B16 bind?
A: no binding

Q: Does B17 bind?
A: no binding

Q: Does B18 bind?
A: no binding
